In patent US20210301005A1 (Genentech, published 2021):
Substitutions are numbered along the chain they refer to.

T1: human TGFβ3, mature dimeric form (human, UniProt P10600 301-412)
T1 construct: Peprotech, expressed in E. coli; also called TGFb3
T1 sequence: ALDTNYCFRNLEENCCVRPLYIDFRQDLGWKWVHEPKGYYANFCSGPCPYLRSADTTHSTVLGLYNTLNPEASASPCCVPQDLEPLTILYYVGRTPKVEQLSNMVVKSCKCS

T2: human TGFβ2, mature receptor-binding domain (human, UniProt P09858 303-414 (pig entry), The mature TGFβ2 is a disulfide-linked homodimer of this 112-residue chain. The 4A11 epitope spans both monomers (p-1207).)
T2 construct: Peprotech; also called TGFb2
T2 sequence: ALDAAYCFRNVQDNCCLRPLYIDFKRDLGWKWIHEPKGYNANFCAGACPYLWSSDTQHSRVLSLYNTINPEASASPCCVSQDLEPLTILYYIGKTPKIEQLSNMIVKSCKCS

B1: h4A11.v7.16 (antibody, human IgG1, kappa, N297G, V domains shown)
VH: EVQLQESGPGLVKPSETLSLTCTVTGFSLSSYTVNWIRQPAGKGLEWIGYISYGGSAYYASWANGRVTISKDTSKNQFSLKLSSVTAADTAVYFCARHMQVGGAPTGSMAAFDPWGQGTLVTVSS
VL: EIVLTQSPGTLSLSPGERATLSCQSSQSVYNNNYLSWFQQKPGQAPRLLIYGASTLTSGIPDRFSGSGSGTDFTLTISRLEPEDFAVYYCAGGYSGSSDKYAFGGGTKVEIKR
B2: h2A10.v2.1 (antibody, human IgG1, kappa, N297G)
heavy: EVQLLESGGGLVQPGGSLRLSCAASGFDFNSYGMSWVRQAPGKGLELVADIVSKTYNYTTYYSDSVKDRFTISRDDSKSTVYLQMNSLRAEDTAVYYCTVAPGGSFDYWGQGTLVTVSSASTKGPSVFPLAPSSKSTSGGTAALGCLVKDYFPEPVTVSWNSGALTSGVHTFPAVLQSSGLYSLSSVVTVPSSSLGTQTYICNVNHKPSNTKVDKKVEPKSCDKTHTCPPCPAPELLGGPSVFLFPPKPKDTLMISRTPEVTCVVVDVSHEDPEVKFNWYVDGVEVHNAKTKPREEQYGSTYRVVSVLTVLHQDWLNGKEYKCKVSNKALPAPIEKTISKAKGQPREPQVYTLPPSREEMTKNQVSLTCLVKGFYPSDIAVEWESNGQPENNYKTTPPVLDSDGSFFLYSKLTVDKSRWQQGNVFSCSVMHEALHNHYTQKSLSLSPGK
light: DIQMTQSPSSLSASVGDRVTITCRASQSVSISRFNLMHWYQHKPGKQPKLLIYRASNLASGIPSRFSGSGSGTDFTLTISSLQPEDFATYYCQHSRESPWTFGGGTKVEIKRTVAAPSVFIFPPSDEQLKSGTASVVCLLNNFYPREAKVQWKVDNALQSGNSQESVTEQDSKDSTYSLSSTLTLSKADYEKHKVYACEVTHQGLSSPVTKSFNRGEC
B3: h2A10.v2.2 (antibody, human IgG1, kappa, N297G, V domains shown)
VH: EVQLLESGGGLVQPGGSLRLSCAASGFDFNSYGMSWVRQAPGKGLELVADIVSKTYNYTTYYSDSVKDRFTISRDDSKSTVYLQMNSLRAEDTAVYYCTVAPGGSFDYWGQGTLVTVSS
VL: DIQLTQSPSSLSASVGDRVTITCRASQSVSISRFNLMHWYQQKPGKQPKLLIYRASNLASGIPSRFSGSGSGTDFTLTISSLQPEDFATYYCQHSRESPWTFGGGTKVEIKR
B4: h2A10.v2.3 (antibody, human IgG1, kappa, N297G, V domains shown)
VH: B3 VH
VL: B3 VL with Q42H, Q47A
B5: h2A10.v2.4 (antibody, human IgG1, kappa, N297G, V domains shown)
VH: B3 VH
VL: B3 VL with Q42H, I62V
B6: h2A10.v2.6 (antibody, human IgG1, kappa, N297G, V domains shown)
VH: B3 VH with A49S
VL: B3 VL with Q42H
B7: h2A10.v2.8 (antibody, human IgG1, kappa, N297G, V domains shown)
VH: B3 VH with S79N
VL: B3 VL with Q42H
B8: h2A10.v2.9 (antibody, human IgG1, kappa, N297G, V domains shown)
VH: B3 VH with V81L
VL: B3 VL with Q42H
B9: h4A11.v1 (antibody, human IgG1, kappa, N297G, V domains shown)
VH: EQQLVESGGGLVQPGGSLRLSCAVSGFSLSSYTVNWVRQAPGKGLEWIGYISYGGSAYYASWANGRFTISKDSAKNSVYLQMNSLRAEDTAVYFCARHMQVGGAPTGSMAAFDPWGPGTLVTVSS
VL: DAVLTQSPDSLAVSLGERATINCQSSQSVYNNNYLSWFQQKPGQPPKLLIYGASTLTSGVPDRFSGSGSGTDFTLTISSLQAEDVAVYYCAGGYSGSSDKYAFGGGTKVEIKR
B10: h4A11.v2 (antibody, human IgG1, kappa, N297G, V domains shown)
VH: B9 VH
VL: DAQLTQSPSSLSASVGDRVTITCQSSQSVYNNNYLSWFQQKPGKPPKLLIYGASTLTSGVPSRFSGSGSGTDFTLTISSLQPEDFATYYCAGGYSGSSDKYAFGGGTKVEIKR
B11: h4A11.v3 (antibody, human IgG1, kappa, N297G, V domains shown)
VH: B1 VH with V2Q, I37V, V67F, T73S, F78V, Q117P
VL: B9 VL
B12: h4A11.v4 (antibody, human IgG1, kappa, N297G, V domains shown)
VH: B1 VH with V2Q, I37V, V67F, T73S, F78V, Q117P
VL: B10 VL
B13: h4A11.v5 (antibody, human IgG1, kappa, N297G, V domains shown)
VH: B9 VH
VL: B1 VL with I2A, A45P, I60V
B14: h4A11.v6 (antibody, human IgG1, kappa, N297G, V domains shown)
VH: B9 VH
VL: DAVLTQTPLSSPVTLGQPASISCQSSQSVYNNNYLSWFQQRPGQPPRLLIYGASTLTSGVPDRFSGSGAGTDFTLKISRVEAEDVGVYYCAGGYSGSSDKYAFGGGTKVEIKR
B15: h4A11.v8 (antibody, V domains shown)
VH: B1 VH with V2Q, I37V, V67F, T73S, F78V, Q117P
VL: DAVLTQTPLSSPVTLGQPASISCQSSQSVYNNNYLSWFQQRPGQPPRLLIYGASTLTSGVPDRFSGSGAGTDFTLKISRVEAEDVGVYYCAGGYSGSSDKYAFGGGTKVEIK

What follows are binders tested against T1, human TGFβ3, mature dimeric form (assay: BIAcore T200).
Description: (§1) For binding affinity determinations of all humanized 2A10 antibodies, Surface Plasmon Resonance (SPR) measurement with a BIAcore™-T200 instrument was used. Briefly, series S CM5 biosensor chip with protein A was first applied to capture each humanized 2A10 variant to achieve approximately 100 response units (RU) on each flow cell, following by injection of 3-fold serial dilutions of human TGFβ1, TGFβ2 or TGFβ3 (0.02 nM to 5 nM) in HBS-EP buffer (0.01M HEPES pH 7.4, 0.15M NaCl, 3 mM EDTA and 0.05% v/v surfactant P20) at 25° C. with a flow rate of 50 μl/min for kinetics measurement. Association rates (ko.) and dissociation rates (koff) were calculated using a simple one-to-one Langmuir binding model (BIAcore T200 evaluation software version 2.0) to determine the equilibrium dissociation constant (KD), which was calculated as the ratio koff/kₒₙ.
(§2) Binding affinity determinations of all humanized 4A11 antibodies were performed using SPR measurement with a BIAcore™-T200 instrument, as described above in Example 6 ([…]).

Binder	Kd [nM]
B1	0.0066

What follows are binders tested against T2, human TGFβ2, mature receptor-binding … (assay: BIAcore T200).
Description: as §1, §2

Binder	Kd [nM]
B1	0.0049

Target: T1, human TGFβ3, mature dimeric form
Assay: BIAcore T200
Remark: another data set of the same source
Description: as §1

Binder	Kd [nM]
B2	0.0031
B3	0.0012
B4	0.0015
B5	0.0021
B6	0.0015
B7	0.0012
B8	0.0007

Target: T2, human TGFβ2, mature receptor-binding …
Assay: BIAcore T200
Remark: another data set of the same source
Description: as §1

Binder	Kd [nM]
B2	0.238
B3	0.124
B4	0.242
B5	0.19
B6	0.249
B7	0.365
B8	0.768

What follows are binders tested against T1, human TGFβ3, mature dimeric form (assay: cell-based or functional assay).

Binder	HEKBlue TGFβ blocking IC50 [nM]
B1	0.13

What follows are binders tested against T2, human TGFβ2, mature receptor-binding … (assay: cell-based or functional assay).

Binder	HEKBlue TGFβ blocking IC50 [nM]
B1	0.09

These binders were tested against T3, human TGFβ1, mature receptor-binding domain (human, UniProt P01137 279-390) (assay: cell-based or functional assay).
T3 sequence (P01137 279-390 limits assumed): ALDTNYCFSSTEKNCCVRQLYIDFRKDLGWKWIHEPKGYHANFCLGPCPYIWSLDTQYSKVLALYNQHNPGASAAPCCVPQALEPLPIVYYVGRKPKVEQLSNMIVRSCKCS

Binder	HEKBlue TGFβ blocking IC50 [nM]
B1	> 200

Target: T1, human TGFβ3, mature dimeric form
Assay: cell-based or functional assay
Remark: another data set of the same source

Binder	HEKBlue TGFβ blocking IC50 [nM]
B9	> 200
B10	> 200
B11	0.23
B12	0.08
B13	1.4
B14	6.7
B15	0.66

Target: T2, human TGFβ2, mature receptor-binding …
Assay: cell-based or functional assay
Remark: another data set of the same source

Binder	HEKBlue TGFβ blocking IC50 [nM]
B9	> 200
B10	> 200
B11	3.9
B12	1.9
B13	> 200
B14	> 200
B15	> 200

Target: T3, human TGFβ1, mature receptor-binding …
Assay: cell-based or functional assay
Remark: another data set of the same source

Binder	HEKBlue TGFβ blocking IC50 [nM]
B9	> 200
B10	> 200
B11	> 200
B12	> 200
B13	> 200
B14	> 200
B15	> 200

Target: T1, human TGFβ3, mature dimeric form
Assay: cell-based or functional assay
Remark: another data set of the same source

Binder	HEKBlue TGFβ blocking IC50 [nM]
B2	0.01
B3	0.01
B4	0.01
B5	0.01
B6	0.01
B7	0.01
B8	0.01

Target: T2, human TGFβ2, mature receptor-binding …
Assay: cell-based or functional assay
Remark: another data set of the same source

Binder	HEKBlue TGFβ blocking IC50 [nM]
B2	> 200
B3	> 200
B4	> 200
B5	> 200
B6	> 200
B7	> 200
B8	> 200

Target: T3, human TGFβ1, mature receptor-binding …
Assay: cell-based or functional assay
Remark: another data set of the same source

Binder	HEKBlue TGFβ blocking IC50 [nM]
B2	> 200
B3	> 200
B4	> 200
B5	> 200
B6	> 200
B7	> 200
B8	> 200

Target: T1, human TGFβ3, mature dimeric form
Assay: BIAcore T200
Remark: another data set of the same source
Description: as §1, §2

Binder	Kd [nM]
B9	0.0144
B10	0.0133
B11	0.0121
B12	0.0101
B13	0.0139
B14	0.0125
B15	0.0141

Target: T2, human TGFβ2, mature receptor-binding …
Assay: BIAcore T200
Remark: another data set of the same source
Description: as §1, §2

Binder	Kd [nM]
B9	0.0046
B10	0.0014
B11	0.0096
B12	0.01
B13	0.0121
B14	0.0084
B15	0.0082
